Where two headings read alike, the source gives them in different places. Positions of bridges follow the written chain, without caps; N, C: chain ends. Non-standard residues stand in square brackets, D forms with d. β3hI = CC[C@H](C)[C@H](N)CC(=O)O; Nle = CCCC[C@H](N)C(=O)O; Nva = CCC[C@H](N)C(=O)O; Sar = CNCC(=O)O
B1: Compound 19 (peptide)
peptide: Ac-ICIWQDWGAHSCT-NH2
modifications: disulfide 2-12
SMILES: CC[C@H](C)[C@H](NC(C)=O)C(=O)N[C@H]1CSSC[C@@H](C(=O)N[C@H](C(N)=O)[C@@H](C)O)NC(=O)[C@H](CO)NC(=O)[C@H](Cc2c[nH]cn2)NC(=O)[C@H](C)NC(=O)CNC(=O)[C@H](Cc2c[nH]c3ccccc23)NC(=O)[C@H](CC(=O)O)NC(=O)[C@H](CCC(N)=O)NC(=O)[C@H](Cc2c[nH]c3ccccc23)NC(=O)[C@H]([C@@H](C)CC)NC1=O
B2: Compound 2 (peptide)
peptide: Ac-ICIWQDWGEHRCT-NH2
modifications: disulfide 2-12
SMILES: CC[C@H](C)[C@H](NC(C)=O)C(=O)N[C@H]1CSSC[C@@H](C(=O)N[C@H](C(N)=O)[C@@H](C)O)NC(=O)[C@H](CCCNC(=N)N)NC(=O)[C@H](Cc2c[nH]cn2)NC(=O)[C@H](CCC(=O)O)NC(=O)CNC(=O)[C@H](Cc2c[nH]c3ccccc23)NC(=O)[C@H](CC(=O)O)NC(=O)[C@H](CCC(N)=O)NC(=O)[C@H](Cc2c[nH]c3ccccc23)NC(=O)[C@H]([C@@H](C)CC)NC1=O
B3: Compound 21 (peptide)
peptide: Ac-ICIWQDWGEHRCS-NH2
modifications: disulfide 2-12
SMILES: CC[C@H](C)[C@H](NC(C)=O)C(=O)N[C@H]1CSSC[C@@H](C(=O)N[C@@H](CO)C(N)=O)NC(=O)[C@H](CCCNC(=N)N)NC(=O)[C@H](Cc2c[nH]cn2)NC(=O)[C@H](CCC(=O)O)NC(=O)CNC(=O)[C@H](Cc2c[nH]c3ccccc23)NC(=O)[C@H](CC(=O)O)NC(=O)[C@H](CCC(N)=O)NC(=O)[C@H](Cc2c[nH]c3ccccc23)NC(=O)[C@H]([C@@H](C)CC)NC1=O
B4: Compound G (peptide)
peptide: Ac-ICVWQDWGEHRCS-NH2
modifications: disulfide 2-12
SMILES: CC[C@H](C)[C@H](NC(C)=O)C(=O)N[C@H]1CSSC[C@@H](C(=O)N[C@@H](CO)C(N)=O)NC(=O)[C@H](CCCNC(=N)N)NC(=O)[C@H](Cc2c[nH]cn2)NC(=O)[C@H](CCC(=O)O)NC(=O)CNC(=O)[C@H](Cc2c[nH]c3ccccc23)NC(=O)[C@H](CC(=O)O)NC(=O)[C@H](CCC(N)=O)NC(=O)[C@H](Cc2c[nH]c3ccccc23)NC(=O)[C@H](C(C)C)NC1=O
B5: Compound 20 (peptide)
peptide: Ac-ICIWQDWGEHSCT-NH2
modifications: disulfide 2-12
SMILES: CC[C@H](C)[C@H](NC(C)=O)C(=O)N[C@H]1CSSC[C@@H](C(=O)N[C@H](C(N)=O)[C@@H](C)O)NC(=O)[C@H](CO)NC(=O)[C@H](Cc2c[nH]cn2)NC(=O)[C@H](CCC(=O)O)NC(=O)CNC(=O)[C@H](Cc2c[nH]c3ccccc23)NC(=O)[C@H](CC(=O)O)NC(=O)[C@H](CCC(N)=O)NC(=O)[C@H](Cc2c[nH]c3ccccc23)NC(=O)[C@H]([C@@H](C)CC)NC1=O
B6: Ac-IC(1)XWQDWGEHRC(1)T-NH2 with Norleucine at position 3 (peptide)
peptide: Ac-IC[Nle]WQDWGEHRCT-NH2
modifications: disulfide 2-12
SMILES: CCCC[C@@H]1NC(=O)[C@@H](NC(=O)[C@@H](NC(C)=O)[C@@H](C)CC)CSSC[C@@H](C(=O)N[C@H](C(N)=O)[C@@H](C)O)NC(=O)[C@H](CCCNC(=N)N)NC(=O)[C@H](Cc2c[nH]cn2)NC(=O)[C@H](CCC(=O)O)NC(=O)CNC(=O)[C@H](Cc2c[nH]c3ccccc23)NC(=O)[C@H](CC(=O)O)NC(=O)[C@H](CCC(N)=O)NC(=O)[C@H](Cc2c[nH]c3ccccc23)NC1=O
B7: Compound 15 (peptide)
peptide: Ac-ICIWQDWGEHRCTGAES-NH2
modifications: disulfide 2-12
SMILES: CC[C@H](C)[C@H](NC(C)=O)C(=O)N[C@H]1CSSC[C@@H](C(=O)N[C@H](C(=O)NCC(=O)N[C@@H](C)C(=O)N[C@@H](CCC(=O)O)C(=O)N[C@@H](CO)C(N)=O)[C@@H](C)O)NC(=O)[C@H](CCCNC(=N)N)NC(=O)[C@H](Cc2c[nH]cn2)NC(=O)[C@H](CCC(=O)O)NC(=O)CNC(=O)[C@H](Cc2c[nH]c3ccccc23)NC(=O)[C@H](CC(=O)O)NC(=O)[C@H](CCC(N)=O)NC(=O)[C@H](Cc2c[nH]c3ccccc23)NC(=O)[C@H]([C@@H](C)CC)NC1=O
B8: Ac-IC(1)XWQDWGEHRC(1)T-NH2 with Norvaline at position 3 (peptide)
peptide: Ac-IC[Nva]WQDWGEHRCT-NH2
modifications: disulfide 2-12
SMILES: CCC[C@@H]1NC(=O)[C@@H](NC(=O)[C@@H](NC(C)=O)[C@@H](C)CC)CSSC[C@@H](C(=O)N[C@H](C(N)=O)[C@@H](C)O)NC(=O)[C@H](CCCNC(=N)N)NC(=O)[C@H](Cc2c[nH]cn2)NC(=O)[C@H](CCC(=O)O)NC(=O)CNC(=O)[C@H](Cc2c[nH]c3ccccc23)NC(=O)[C@H](CC(=O)O)NC(=O)[C@H](CCC(N)=O)NC(=O)[C@H](Cc2c[nH]c3ccccc23)NC1=O
B9: Compound 24 (peptide)
peptide: Ac-ICIWQDWGEHRCTEGE-NH2
modifications: disulfide 2-12
SMILES: CC[C@H](C)[C@H](NC(C)=O)C(=O)N[C@H]1CSSC[C@@H](C(=O)N[C@H](C(=O)N[C@@H](CCC(=O)O)C(=O)NCC(=O)N[C@@H](CCC(=O)O)C(N)=O)[C@@H](C)O)NC(=O)[C@H](CCCNC(=N)N)NC(=O)[C@H](Cc2c[nH]cn2)NC(=O)[C@H](CCC(=O)O)NC(=O)CNC(=O)[C@H](Cc2c[nH]c3ccccc23)NC(=O)[C@H](CC(=O)O)NC(=O)[C@H](CCC(N)=O)NC(=O)[C@H](Cc2c[nH]c3ccccc23)NC(=O)[C@H]([C@@H](C)CC)NC1=O
notes: also called Comp No 24
B10: Ac-IC(1)XWQDWGEHRC(1)T-NH2 with Beta-Homo-Isoleucine at position 3 (peptide)
peptide: Ac-IC[β3hI]WQDWGEHRCT-NH2
modifications: disulfide 2-12
B11: Compound 3 (peptide)
peptide: Ac-ESSAICIWQDWGEHRCT-NH2
modifications: disulfide 6-16
SMILES: CC[C@H](C)[C@H](NC(=O)[C@H](C)NC(=O)[C@H](CO)NC(=O)[C@H](CO)NC(=O)[C@H](CCC(=O)O)NC(C)=O)C(=O)N[C@H]1CSSC[C@@H](C(=O)N[C@H](C(N)=O)[C@@H](C)O)NC(=O)[C@H](CCCNC(=N)N)NC(=O)[C@H](Cc2c[nH]cn2)NC(=O)[C@H](CCC(=O)O)NC(=O)CNC(=O)[C@H](Cc2c[nH]c3ccccc23)NC(=O)[C@H](CC(=O)O)NC(=O)[C@H](CCC(N)=O)NC(=O)[C@H](Cc2c[nH]c3ccccc23)NC(=O)[C@H]([C@@H](C)CC)NC1=O
B12: Compound 6 (peptide)
peptide: Ac-ICIWQDWGSHRCT-NH2
modifications: disulfide 2-12
SMILES: CC[C@H](C)[C@H](NC(C)=O)C(=O)N[C@H]1CSSC[C@@H](C(=O)N[C@H](C(N)=O)[C@@H](C)O)NC(=O)[C@H](CCCNC(=N)N)NC(=O)[C@H](Cc2c[nH]cn2)NC(=O)[C@H](CO)NC(=O)CNC(=O)[C@H](Cc2c[nH]c3ccccc23)NC(=O)[C@H](CC(=O)O)NC(=O)[C@H](CCC(N)=O)NC(=O)[C@H](Cc2c[nH]c3ccccc23)NC(=O)[C@H]([C@@H](C)CC)NC1=O
B13: Compound 28 (peptide)
peptide: Ac-EGSAICIWQDWGEHRC[Sar]E-NH2
modifications: disulfide 6-16
SMILES: CC[C@H](C)[C@H](NC(=O)[C@H](C)NC(=O)[C@H](CO)NC(=O)CNC(=O)[C@H](CCC(=O)O)NC(C)=O)C(=O)N[C@H]1CSSC[C@@H](C(=O)N(C)CC(=O)N[C@@H](CCC(=O)O)C(N)=O)NC(=O)[C@H](CCCNC(=N)N)NC(=O)[C@H](Cc2c[nH]cn2)NC(=O)[C@H](CCC(=O)O)NC(=O)CNC(=O)[C@H](Cc2c[nH]c3ccccc23)NC(=O)[C@H](CC(=O)O)NC(=O)[C@H](CCC(N)=O)NC(=O)[C@H](Cc2c[nH]c3ccccc23)NC(=O)[C@H]([C@@H](C)CC)NC1=O

Key:
Human C3 [1] = molecular target: T1, Human C3 (human, UniProt P01024 23-1663); assay: cell-based or functional assay
T1 sequence (P01024 23-1663 limits assumed): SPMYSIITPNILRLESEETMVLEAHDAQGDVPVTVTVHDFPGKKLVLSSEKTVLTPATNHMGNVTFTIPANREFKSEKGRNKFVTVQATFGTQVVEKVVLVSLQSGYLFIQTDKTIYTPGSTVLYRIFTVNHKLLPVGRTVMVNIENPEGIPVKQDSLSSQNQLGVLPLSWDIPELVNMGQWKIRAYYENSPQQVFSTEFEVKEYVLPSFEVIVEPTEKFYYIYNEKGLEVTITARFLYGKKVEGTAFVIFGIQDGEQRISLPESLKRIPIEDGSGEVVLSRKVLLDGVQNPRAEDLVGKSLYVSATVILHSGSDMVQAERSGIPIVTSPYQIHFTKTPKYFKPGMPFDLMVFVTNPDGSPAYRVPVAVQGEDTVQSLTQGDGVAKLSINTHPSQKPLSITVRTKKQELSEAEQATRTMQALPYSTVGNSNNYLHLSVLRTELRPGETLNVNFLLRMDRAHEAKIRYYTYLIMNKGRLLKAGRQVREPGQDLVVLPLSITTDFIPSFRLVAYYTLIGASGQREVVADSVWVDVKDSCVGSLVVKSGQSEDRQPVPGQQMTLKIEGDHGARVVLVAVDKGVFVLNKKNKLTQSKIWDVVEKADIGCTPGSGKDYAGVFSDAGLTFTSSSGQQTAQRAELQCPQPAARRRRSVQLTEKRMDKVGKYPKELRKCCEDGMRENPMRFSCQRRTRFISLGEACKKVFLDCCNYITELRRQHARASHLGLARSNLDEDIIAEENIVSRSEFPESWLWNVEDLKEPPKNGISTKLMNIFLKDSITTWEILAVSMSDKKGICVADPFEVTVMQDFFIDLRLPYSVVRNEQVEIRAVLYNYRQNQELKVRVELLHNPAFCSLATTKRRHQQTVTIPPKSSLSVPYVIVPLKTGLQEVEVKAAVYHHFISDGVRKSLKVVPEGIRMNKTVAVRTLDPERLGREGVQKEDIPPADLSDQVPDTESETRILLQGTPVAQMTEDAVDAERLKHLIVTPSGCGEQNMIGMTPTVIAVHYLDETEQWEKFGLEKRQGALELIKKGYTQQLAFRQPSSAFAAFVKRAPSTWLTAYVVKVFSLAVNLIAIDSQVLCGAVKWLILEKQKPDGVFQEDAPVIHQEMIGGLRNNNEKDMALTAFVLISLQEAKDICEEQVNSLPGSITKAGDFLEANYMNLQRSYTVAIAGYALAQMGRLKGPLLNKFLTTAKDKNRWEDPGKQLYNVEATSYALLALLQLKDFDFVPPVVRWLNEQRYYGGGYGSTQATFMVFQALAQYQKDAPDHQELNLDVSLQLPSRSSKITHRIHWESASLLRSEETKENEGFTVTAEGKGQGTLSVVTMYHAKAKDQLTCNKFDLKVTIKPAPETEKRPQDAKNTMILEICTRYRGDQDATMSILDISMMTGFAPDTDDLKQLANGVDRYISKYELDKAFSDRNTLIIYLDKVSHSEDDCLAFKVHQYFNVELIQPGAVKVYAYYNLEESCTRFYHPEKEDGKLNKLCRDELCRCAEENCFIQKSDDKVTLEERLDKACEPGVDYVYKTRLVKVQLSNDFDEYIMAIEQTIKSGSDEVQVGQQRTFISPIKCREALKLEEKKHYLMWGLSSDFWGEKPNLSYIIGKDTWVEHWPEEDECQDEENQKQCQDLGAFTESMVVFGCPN

Human C3 [2] = molecular target: T1, Human C3; assay: cell-based or functional assay; remark: listed apart in the source
Human C3 [3] = molecular target: T1, Human C3; assay: cell-based or functional assay; remark: listed apart in the source
Human C3 [4] = molecular target: T1, Human C3; assay: SPR, C3 immobilised
Protocol: Surface plasmon resonance (SPR) was used to characterize peptides with respect to their binding affinity (Kd) for C3. Human C3 (Complement tech cat #A1 13c) was immobilised on individual flow cells of CM5 sensor chips (GE Healthcare) using standard amine coupling to a density of approximately 3000 resonance units (RU) in a buffer consisting of 10 mM phosphate pH 7.4, 150 mM NaCl, 0.05% Tween20.
For interaction experiments a multi-cycle experiment approach was used and performed using either a Biacore™ T200 or Biacore™ X100 instrument (GE Healthcare) at 25° C. Peptides were injected in increasing concentration series (5-8 different concentrations) for 60-120 s at a flow rate of 30 μL/min in a buffer consisting of 10 mM Tris buffer at pH 7.4, with 150 mM NaCl and 0.05% Tween20. This was followed by a dissociation period for up to 10 min. The C3 surface was regenerated between runs by a 45 s injection of 3 M MgCl₂.
Sensorgrams were double-referenced (reference surface, blanks) prior to analysis of the kinetic profiles by globally fitting data to a 1:1 Langmuir binding model to obtain association and dissociation rates for calculation of the equilibrium dissociation constant Kd. Each peptide was tested at in at least 2 independent experiments.

Human C3 [5] = molecular target: T1, Human C3; assay: SPR, C3 immobilised; remark: listed apart in the source
Outline: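 Human C3 amine-coupled to a CM5 chip at ~3000 RU; peptides injected multi-cycle at 5-8 concentrations for 60-120 s in Tris pH 7.4, 150 mM NaCl, 0.05% Tween20 at 25° C, dissociation up to 10 min.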

Row | Binder | CP hemolysis IC50 (Human C3 [1]) [nM] | IC50[nM], inhibition of hemolysis (Human C3 [2]) [nM] | IC50, CP hemolysis (Human C3 [3]) [nM] | Kd (Human C3 [4]) [nM] | Kd (Human C3 [5]) [nM]
1 | B1 | 140 | < 250 | – | – | –
2 | B2 | 94 | < 100 | < 100 | – | –
3 | B3 | 77 | < 100 | – | – | –
4 | B4 | 180 | – | – | 160 | –
5 | B5 | 59 | < 100 | – | – | 37
6 | B6 | – | – | 480 | – | –
7 | B7 | 47 | < 100 | – | – | –
8 | B8 | – | – | > 1000 | – | –
9 | B9 | 90 | < 100 | – | – | –
10 | B10 | – | – | > 10000 | – | –
11 | B11 | 69 | < 100 | – | – | –
12 | B12 | 140 | < 250 | – | – | –
13 | B13 | 88 | < 100 | – | – | 44
